# Measurements as given in patent US20100015643A1.
# Experiments:
# [1] = biological target: TLR2 on human monocytes (human) (UniProt O60603); test: flow cytometry on monocytes, Sample 3, antibody at 3 µg/mL
# [2] = biological target: TLR2 on human monocytes (human) (UniProt O60603); test: flow cytometry on monocytes, MFI of anti-TLR2 antibody minus MFI of control antibody
# [3] = biological target: TLR2 on human monocytes (human) (UniProt O60603); test: flow cytometry on monocytes, Sample 2, instrument setting FL634
# [4] = biological target: TLR2 on human monocytes (human) (UniProt O60603); test: flow cytometry on monocytes, Sample 3, instrument setting FL534
# [5] = biological target: TLR2 on human monocytes (human) (UniProt O60603); test: flow cytometry on monocytes, Sample 2, antibody at 1 µg/mL
# [6] = biological target: TLR2 on human monocytes (human) (UniProt O60603); test: flow cytometry on monocytes, Sample 1, antibody at 1 µg/mL
# [7] = biological target: TLR2 on human monocytes (human) (UniProt O60603); test: flow cytometry on monocytes, Sample 3, instrument setting FL634
# [8] = biological target: TLR2 on human monocytes (human) (UniProt O60603); test: flow cytometry on monocytes, Sample 3, antibody at 1 µg/mL
# [9] = biological target: TLR2 on human monocytes (human) (UniProt O60603); test: flow cytometry on monocytes, Sample 1, instrument setting FL534
# [10] = biological target: TLR2 on human monocytes (human) (UniProt O60603); test: flow cytometry on monocytes, Sample 2, instrument setting FL534
# [11] = biological target: TLR2 on human monocytes (human) (UniProt O60603); test: flow cytometry on monocytes of a patient's blood sample, 3 µg/mL PE-labeled antibody
# [12] = biological target: TLR2 on human monocytes (human) (UniProt O60603); test: flow cytometry on monocytes, Sample 2, antibody at 3 µg/mL
# [13] = biological target: TLR2 on human monocytes (human) (UniProt O60603); test: flow cytometry on monocytes, Sample 1, antibody at 3 µg/mL
# [14] = biological target: TLR2 on human monocytes (human) (UniProt O60603); test: flow cytometry on monocytes, Sample 1, instrument setting FL634
# [15] = biological target: TLR2 on human monocytes (human) (UniProt O60603); test: flow cytometry on monocytes of a patient's blood sample, 3 µg/mL PE-labeled control antibody
# Chain of UniProt O60603 (O60603 21-784): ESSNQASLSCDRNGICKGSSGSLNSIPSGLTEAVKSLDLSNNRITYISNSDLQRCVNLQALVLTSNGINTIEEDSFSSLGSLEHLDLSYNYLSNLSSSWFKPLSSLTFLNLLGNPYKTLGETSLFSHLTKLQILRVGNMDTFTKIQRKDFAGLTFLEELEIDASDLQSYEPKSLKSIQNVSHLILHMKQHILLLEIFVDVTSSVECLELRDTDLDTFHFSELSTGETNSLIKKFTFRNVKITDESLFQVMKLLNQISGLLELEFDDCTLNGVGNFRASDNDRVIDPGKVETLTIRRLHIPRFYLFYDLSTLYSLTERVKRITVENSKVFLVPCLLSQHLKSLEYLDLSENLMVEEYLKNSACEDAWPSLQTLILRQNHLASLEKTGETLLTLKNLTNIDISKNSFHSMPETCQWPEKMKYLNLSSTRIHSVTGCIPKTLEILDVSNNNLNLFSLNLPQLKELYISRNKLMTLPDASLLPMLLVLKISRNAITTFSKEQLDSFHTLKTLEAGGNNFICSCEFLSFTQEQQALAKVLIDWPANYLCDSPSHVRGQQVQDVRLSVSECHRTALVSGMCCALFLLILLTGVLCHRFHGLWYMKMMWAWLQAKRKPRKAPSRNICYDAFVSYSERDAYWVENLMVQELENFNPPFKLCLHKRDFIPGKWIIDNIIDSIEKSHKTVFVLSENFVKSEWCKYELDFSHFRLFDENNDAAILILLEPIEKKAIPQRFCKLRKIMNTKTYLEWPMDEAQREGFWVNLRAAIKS
Substance,Delta MFI [1],Delta MFI [2],Delta MFI [3],Delta MFI [4],Delta MFI [5],Delta MFI [6],Delta MFI [7],Delta MFI [8],Delta MFI [9],Delta MFI [10],MFI [11],Delta MFI [12],Delta MFI [13],Delta MFI [14],MFI [15]
"PE-bound anti-TLR2 monoclonal antibody (clone name: T2.1, product of eBioscience)",68.7 MFI,92.6 MFI,340 MFI,68.7 MFI,54.1 MFI,53.7 MFI,273 MFI,40.4 MFI,77.5 MFI,88 MFI,104 MFI,88 MFI,77.5 MFI,286 MFI,
PE-labeled control (mouse IgG2a) antibody,,,,,,,,,,,,,,,11.7 MFI
